The term EC50 denotes the concentration needed to bring the measured effect to its halfway point.

Assay [1] addresses T1, Human CD3ε (human, UniProt P07766 23-126).
T1 construct: CD3 on T cells isolated from human whole blood
Nature of the assay: flow cytometry, human T cells. The method, boiled down: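 Mean fluorescence intensity by flow cytometry was plotted against antibody concentration; EC50 came from a one site–specific binding fit. Cells (2×10⁵/well) were incubated with 11-point, 3-fold antibody dilutions starting at 3000 nM for 2 h at 4° C, then with PE anti-human IgG Fc for 1 h.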
(In general: Flow cytometry measures light scatter and fluorescence of single cells or particles in a stream.)

Assay [2] deals with T2, Monkey CD3 (monkey).
T2 construct: whole, on cells; also called CD3 of monkey CD3 positive T cells
Nature of the assay: flow cytometry, monkey T cells.

Assay [3] concerns the target T3, Human BCMA (human, UniProt Q02223 1-54).
T3 sequence: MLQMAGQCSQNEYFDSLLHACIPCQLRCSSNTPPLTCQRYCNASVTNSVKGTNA
Kind of assay: flow cytometry, human tumor cells (BCMA+). The text has this: 1) Cell preparation: T cells isolated from CD3-positive human whole blood were used for a CD3 end affinity detection of multifunctional antibody molecule; positive tumor cells of corresponding antigen were used for detecting affinity of tumor antigen; for example, CD38-positive MM. 1S cells (purchased from the Cell Resource Center of Shanghai Institutes for Biological Sciences, Chinese Academy of Sciences) or RPMI 8226 cells (purchased from the Cell Resource Center of Shanghai Institutes for Biological Sciences, Chinese Academy of Sciences) were used for CD38 antigen detection, and PD-L1 positive H358 cells (purchased from the Cell Resource Center of Shanghai Institutes for Biological Sciences, Chinese Academy of Sciences) were used for PD-L1 antigen detection, and so on. The cells were resuspended with 1% FBS-PBS, adjusted to a density of 4×10⁶/ml, and 50 μl of cells were taken from each well, and then plated at 2×10⁵ per well. Cell plating was operated on ice
2) Addition of the antibody: according to the experimental design, the antibody was diluted gradually, and dilution of antibody was operated on ice. For example, the initial concentration of antibody for dilution was 3000 nM, and the antibody was diluted by 3 times with 11 concentration gradients. The diluted antibody was added to a cell well at 50 μl per well, mixed well, and shaked and incubated at 4° C. 1100 rpm/min for 2 h; after washing, the cells were resuspend in 1% FBS-PBS, and a diluted secondary antibody PE anti-human IgG FC (Biolegend, 409304) was added with a final concentration of 8 ug/ml and a volume of 50 μl/well. At the same time, a well only added with cells and secondary antibody was set as a control, the components were mixed well, and incubated under shaking at 1100 rpm/min at 4° C. for 1 h;
5) Data analysis: the data was analyzed by a flow analysis software FlowJo 7.6 thereby obtaining an average fluorescence intensity of the specific antibody concentration, plotted by a Graphpad Prism 5 with the antibody concentration (nM) as an abscissa and the average fluorescence intensity as an ordinate; the EC50 value was calculated by the method of One site—Specific binding, and the EC50 value indicated the cell affinity of the antibody to the corresponding target antigen.

B1: BCMA-M2-AG2 (bispecific antibody, human IgG1, kappa)
chain: QLQLQESGPGLVKPSETLSLTCTVSGGSISSGSYFWGWIRQPPGKGLEWIGSIYYSGITYYNPSLKSRVTISVDTSKNQFSLKLSSVTAADTAVYYCARHDGAVAGLFDYWGQGTLVTVSSASTKGPSVFPLAPSSKSTSGGTAALGCLVKDYFPEPVTVSWNSGALTSGVHTFPAVLQSSGLYSLSSVVTVPSSSLGTQTYICNVNHKPSNTKVDKKVEPKSCDKTHTGGGSAAAQVQLVESGGGVVQPGRSLRLSCAASGFTFSTYAMNWVRQAPGKGLEWVARIRSKYNNYATYYADSVKDRFTISRDDSKNTLYLQMNSLRAEDTAVYYCARHGNFGNSYVSWFAYWGQGTLVTVSSGGGGSGGGGSGGGGSQTVVTQEPSLTVSPGGTVTLTCRSSTGAVTTSNYANWVQQKPGQAPRGLIGGTNKRAPGVPARFSGSLLGGKAALTLSGVQPEDEAEYYCALWYSNLWVFGGGTKVEIKGGGGSDKTHTCPPAPAPPVAGPSVFLFPPKPKDTLMISRTPEVTCVVVDVSHEDPEVQFNWYVDGVEVHNAKTKPREEQFNSTFRVVSVLTVVHQDWLNGKEYKCKVSNKGLPAPIEKTISKTKGQPREPQVYTLPPCRDELTKNQVSLWCLVKGFYPSDIAVEWESNGQPENNYKTTPPVLDSDGSFFLYSKLTVDKSRWQQGNVFSCSVMHEALHNHYTQKSLSLSPGK
heavy: QLQLQESGPGLVKPSETLSLTCTVSGGSISSGSYFWGWIRQPPGKGLEWIGSIYYSGITYYNPSLKSRVTISVDTSKNQFSLKLSSVTAADTAVYYCARHDGAVAGLFDYWGQGTLVTVSSASTKGPSVFPLAPSSKSTSGGTAALGCLVKDYFPEPVTVSWNSGALTSGVHTFPAVLQSSGLYSLSSVVTVPSSSLGTQTYICNVNHKPSNTKVDKKVEPKSCDKTHTCPPAPAPPVAGPSVFLFPPKPKDTLMISRTPEVTCVVVDVSHEDPEVQFNWYVDGVEVHNAKTKPREEQFNSTFRVVSVLTVVHQDWLNGKEYKCKVSNKGLPAPIEKTISKTKGQPREPQVCTLPPSRDELTKNQVSLSCAVKGFYPSDIAVEWESNGQPENNYKTTPPVLDSDGSFFLVSKLTVDKSRWQQGNVFSCSVMHEALHNRFTQKSLSLSPGK
light: SYVLTQPPSVSVAPGQTARITCGGNNIGSKSVHWYQQPPGQAPVVVVYDDSDRPSGIPERFSGNSNGNTATLTISRVEAGDEAVYYCQVWDSSSDHVVFGGGTKLTVLRTVAAPSVFIFPPSDEQLKSGTASVVCLLNNFYPREAKVQWKVDNALQSGNSQESVTEQDSKDSTYSLSSTLTLSKADYEKHKVYACEVTHQGLSSPVTKSFNRGEC
notes: structure 2; BCMA x CD3; CH2 AG2CH2
For the molecule B1, the figures for the 50% effective concentration (EC50) in assay [1], in assay [2] and in assay [3] were 613 nM, 668 nM and 23.8 nM, respectively.

B2: BCMA-M2-DG2D (bispecific antibody, human IgG1, kappa)
chain: QLQLQESGPGLVKPSETLSLTCTVSGGSISSGSYFWGWIRQPPGKGLEWIGSIYYSGITYYNPSLKSRVTISVDTSKNQFSLKLSSVTAADTAVYYCARHDGAVAGLFDYWGQGTLVTVSSASTKGPSVFPLAPSSKSTSGGTAALGCLVKDYFPEPVTVSWNSGALTSGVHTFPAVLQSSGLYSLSSVVTVPSSSLGTQTYICNVNHKPSNTKVDKKVEPKSCDKTHTGGGSAAAQVQLVESGGGVVQPGRSLRLSCAASGFTFSTYAMNWVRQAPGKGLEWVARIRSKYNNYATYYADSVKDRFTISRDDSKNTLYLQMNSLRAEDTAVYYCARHGNFGNSYVSWFAYWGQGTLVTVSSGGGGSGGGGSGGGGSQTVVTQEPSLTVSPGGTVTLTCRSSTGAVTTSNYANWVQQKPGQAPRGLIGGTNKRAPGVPARFSGSLLGGKAALTLSGVQPEDEAEYYCALWYSNLWVFGGGTKVEIKGGGGSDKTHTCPPCPAPPVAGPSVFLFPPKPKDTLMISRTPEVTCVVVAVSHEAPEVQFNWYVDGVEVHNAKTKPREEQFNSTFRVVSVLTVVHQDWLNGKEYKCKVSNKGLPAPIEKTISKTKGQPREPQVYTLPPCRDELTKNQVSLWCLVKGFYPSDIAVEWESNGQPENNYKTTPPVLDSDGSFFLYSKLTVDKSRWQQGNVFSCSVMHEALHNHYTQKSLSLSPGK
heavy: QLQLQESGPGLVKPSETLSLTCTVSGGSISSGSYFWGWIRQPPGKGLEWIGSIYYSGITYYNPSLKSRVTISVDTSKNQFSLKLSSVTAADTAVYYCARHDGAVAGLFDYWGQGTLVTVSSASTKGPSVFPLAPSSKSTSGGTAALGCLVKDYFPEPVTVSWNSGALTSGVHTFPAVLQSSGLYSLSSVVTVPSSSLGTQTYICNVNHKPSNTKVDKKVEPKSCDKTHTCPPCPAPPVAGPSVFLFPPKPKDTLMISRTPEVTCVVVAVSHEAPEVQFNWYVDGVEVHNAKTKPREEQFNSTFRVVSVLTVVHQDWLNGKEYKCKVSNKGLPAPIEKTISKTKGQPREPQVCTLPPSRDELTKNQVSLSCAVKGFYPSDIAVEWESNGQPENNYKTTPPVLDSDGSFFLVSKLTVDKSRWQQGNVFSCSVMHEALHNRFTQKSLSLSPGK
light: SYVLTQPPSVSVAPGQTARITCGGNNIGSKSVHWYQQPPGQAPVVVVYDDSDRPSGIPERFSGNSNGNTATLTISRVEAGDEAVYYCQVWDSSSDHVVFGGGTKLTVLRTVAAPSVFIFPPSDEQLKSGTASVVCLLNNFYPREAKVQWKVDNALQSGNSQESVTEQDSKDSTYSLSSTLTLSKADYEKHKVYACEVTHQGLSSPVTKSFNRGEC
notes: structure 2; BCMA x CD3; CH2 DG2DCH2
On to B2, for which the EC50 in assay [1] is 534 nM; in assay [2], 641 nM; in assay [3], 18.8 nM.

B3: BCMA-M2-DG2 (bispecific antibody, human IgG1, kappa)
chain: QLQLQESGPGLVKPSETLSLTCTVSGGSISSGSYFWGWIRQPPGKGLEWIGSIYYSGITYYNPSLKSRVTISVDTSKNQFSLKLSSVTAADTAVYYCARHDGAVAGLFDYWGQGTLVTVSSASTKGPSVFPLAPSSKSTSGGTAALGCLVKDYFPEPVTVSWNSGALTSGVHTFPAVLQSSGLYSLSSVVTVPSSSLGTQTYICNVNHKPSNTKVDKKVEPKSCDKTHTGGGSAAAQVQLVESGGGVVQPGRSLRLSCAASGFTFSTYAMNWVRQAPGKGLEWVARIRSKYNNYATYYADSVKDRFTISRDDSKNTLYLQMNSLRAEDTAVYYCARHGNFGNSYVSWFAYWGQGTLVTVSSGGGGSGGGGSGGGGSQTVVTQEPSLTVSPGGTVTLTCRSSTGAVTTSNYANWVQQKPGQAPRGLIGGTNKRAPGVPARFSGSLLGGKAALTLSGVQPEDEAEYYCALWYSNLWVFGGGTKVEIKGGGGSDKTHTCPPCPAPPVAGPSVFLFPPKPKDTLMISRTPEVTCVVVAVSHEDPEVQFNWYVDGVEVHNAKTKPREEQFNSTFRVVSVLTVVHQDWLNGKEYKCKVSNKGLPAPIEKTISKTKGQPREPQVYTLPPCRDELTKNQVSLWCLVKGFYPSDIAVEWESNGQPENNYKTTPPVLDSDGSFFLYSKLTVDKSRWQQGNVFSCSVMHEALHNHYTQKSLSLSPGK
heavy: QLQLQESGPGLVKPSETLSLTCTVSGGSISSGSYFWGWIRQPPGKGLEWIGSIYYSGITYYNPSLKSRVTISVDTSKNQFSLKLSSVTAADTAVYYCARHDGAVAGLFDYWGQGTLVTVSSASTKGPSVFPLAPSSKSTSGGTAALGCLVKDYFPEPVTVSWNSGALTSGVHTFPAVLQSSGLYSLSSVVTVPSSSLGTQTYICNVNHKPSNTKVDKKVEPKSCDKTHTCPPCPAPPVAGPSVFLFPPKPKDTLMISRTPEVTCVVVAVSHEDPEVQFNWYVDGVEVHNAKTKPREEQFNSTFRVVSVLTVVHQDWLNGKEYKCKVSNKGLPAPIEKTISKTKGQPREPQVCTLPPSRDELTKNQVSLSCAVKGFYPSDIAVEWESNGQPENNYKTTPPVLDSDGSFFLVSKLTVDKSRWQQGNVFSCSVMHEALHNRFTQKSLSLSPGK
light: SYVLTQPPSVSVAPGQTARITCGGNNIGSKSVHWYQQPPGQAPVVVVYDDSDRPSGIPERFSGNSNGNTATLTISRVEAGDEAVYYCQVWDSSSDHVVFGGGTKLTVLRTVAAPSVFIFPPSDEQLKSGTASVVCLLNNFYPREAKVQWKVDNALQSGNSQESVTEQDSKDSTYSLSSTLTLSKADYEKHKVYACEVTHQGLSSPVTKSFNRGEC
notes: structure 2; BCMA x CD3; CH2 DG2CH2
As to B3, the EC50 is 550 nM in assay [1], 501 nM in assay [2] and 17.4 nM in assay [3].
